Source: article PMC8730436

System: RplI (ribosomal large subunit protein L9) (Pseudomonas aeruginosa mPAO1)
Test: MST

-24 nt-exsA RNA
Kd: 529 nM
